The values below are quoted from earlier work in paper PMC10935306.

The target in the data set is Ship2 Sam (Homo sapiens) (UniProt O15357).
Chain of UniProt O15357 (O15357 1193-1258): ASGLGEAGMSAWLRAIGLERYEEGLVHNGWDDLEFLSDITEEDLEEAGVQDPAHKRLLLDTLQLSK

As usually defined, the Kd is the free concentration of one partner at which half of the binding sites on the other are occupied at equilibrium, for simple one-to-one binding. EphA2 Sam (from UniProt P29317): the dissociation constant (Kd) was 750 nM.
